The source of these data is paper PMC9508819, “Rbp95 binds to 25S rRNA helix H95 and cooperates with the Npa1 complex during early pre-60S particle maturation”.

The target in data set [1] is T1, Rbp95 full length (Saccharomyces cerevisiae, UniProt P25617 1-290).
T1 sequence: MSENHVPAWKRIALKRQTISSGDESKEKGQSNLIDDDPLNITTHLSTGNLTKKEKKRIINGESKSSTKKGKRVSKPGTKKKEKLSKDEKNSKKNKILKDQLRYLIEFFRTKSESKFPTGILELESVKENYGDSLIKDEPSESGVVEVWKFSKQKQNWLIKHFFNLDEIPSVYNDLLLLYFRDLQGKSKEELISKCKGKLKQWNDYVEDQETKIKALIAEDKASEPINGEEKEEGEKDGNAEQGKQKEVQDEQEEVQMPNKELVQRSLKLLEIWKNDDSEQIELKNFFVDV
The data set is described as follows: EMSA; 5 nM RNA; shift starts at 1.5-fold excess; similar to H95; EMSA: 25 mM Tris-HCl pH 7.5, 75 mM NaCl, 2.5 mM MgCl2, 3.5% glycerol, 0.025% Tween 20, 0.5 mM DTT, 5 nM Cy5-RNA, 30 min at RT; 4-20% TBE gel. As to conditions: protein: recombinant; tags: N-terminal His6; label: 5'-Cy5; hairpin. For orientation: A gel shift assay detects complexes by their altered migration in electrophoresis.

Data set [2] has as its target T1, Rbp95 full length. The data set is described as follows: EMSA; 5 nM RNA; shift starts at 1.5-fold excess of Rbp95; EMSA: 25 mM Tris-HCl pH 7.5, 75 mM NaCl, 2.5 mM MgCl2, 3.5% glycerol, 0.025% Tween 20, 0.5 mM DTT, 5 nM Cy5-RNA, 30 min at RT; 4-20% TBE gel. The note with it: protein: recombinant; tags: N-terminal His6; label: 5'-Cy5; hairpin.
A further data set has as its target T2, Rbp95 183-end (Saccharomyces cerevisiae, UniProt P25617 183-290).
T2 sequence: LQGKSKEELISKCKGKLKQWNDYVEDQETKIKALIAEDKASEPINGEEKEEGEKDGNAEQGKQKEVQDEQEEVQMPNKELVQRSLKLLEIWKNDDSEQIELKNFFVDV
The data set is described as follows: EMSA; 100- or 500-fold excess; not sufficient for binding; EMSA: 25 mM Tris-HCl pH 7.5, 75 mM NaCl, 2.5 mM MgCl2, 3.5% glycerol, 0.025% Tween 20, 0.5 mM DTT, 5 nM Cy5-RNA, 30 min at RT; 4-20% TBE gel. The note with it: protein: recombinant; tags: N-terminal His6; label: 5'-Cy5; hairpin.

For another data set, the target named is T3, Rbp95 1-85 (Saccharomyces cerevisiae, UniProt P25617 1-85).
T3 sequence: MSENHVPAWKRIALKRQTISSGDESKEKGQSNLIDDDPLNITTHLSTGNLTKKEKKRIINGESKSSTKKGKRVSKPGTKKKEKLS
The data set is described as follows: EMSA; 100- or 500-fold excess; strong shift, slightly more protein needed than full length; EMSA: 25 mM Tris-HCl pH 7.5, 75 mM NaCl, 2.5 mM MgCl2, 3.5% glycerol, 0.025% Tween 20, 0.5 mM DTT, 5 nM Cy5-RNA, 30 min at RT; 4-20% TBE gel. The note with it: protein: recombinant; tags: N-terminal His6; label: 5'-Cy5; hairpin.

For data set [3], the target named is T1, Rbp95 full length. The data set is described as follows: competition; 20-100-fold excess over Cy5-H95; reverts shift; EMSA: 25 mM Tris-HCl pH 7.5, 75 mM NaCl, 2.5 mM MgCl2, 3.5% glycerol, 0.025% Tween 20, 0.5 mM DTT, 5 nM Cy5-RNA, 30 min at RT; 4-20% TBE gel. As to conditions: protein: recombinant; tags: N-terminal His6; hairpin.

AAAGGGCGUCAGGGUUGAUAUGAUGCCCUGACGCCC (structured_RNA) [helix H45 (25S rRNA)]: in the data set with Rbp95 full length [1], the binding result was “binds”. For the molecule AAAGGGAAUUGAACUUAGUACGAGAGGAACAGUUCAUUUCCC (structured_RNA) [helix H95 (25S rRNA)], the binding result with Rbp95 full length [2] is “binds”; with Rbp95 183-end, “no binding”; with Rbp95 1-85 it was “binds”.

Regarding AAAGGGAAUUGAACUUAGUACGAGAGGAACAGUUCAUUUCCC (structured_RNA) [helix H95 unlabeled competitor], the binding result with Rbp95 full length [3] was “binds”.
